Measured values taken from PMC9482650, “Quantitative fragmentomics allow affinity mapping of interactomes” (Nature Communications, 2022).

Assays:
Assay in all cases: holdup assay
Parameters in all cases: key: below the threshold = too weak to quantify, mostly under pKd 3.1 to 4
[1] = target: AHNAK1, Q09666
[2] = target: T1, APBA1_1, Q02410
T1 sequence (Q02410 651-752, limits assumed, looked up): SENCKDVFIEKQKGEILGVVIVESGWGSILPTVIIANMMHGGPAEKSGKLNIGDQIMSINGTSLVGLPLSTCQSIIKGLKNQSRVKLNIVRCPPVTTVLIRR

[3] = target: DLG4_3, P78352
[4] = target: GRID2IP_1, A4D2P6
[5] = target: GRID2IP_2, A4D2P6
[6] = target: T2, GRIP1_5, Q9Y3R0
T2 sequence (Q9Y3R0 568-668, limits assumed, looked up): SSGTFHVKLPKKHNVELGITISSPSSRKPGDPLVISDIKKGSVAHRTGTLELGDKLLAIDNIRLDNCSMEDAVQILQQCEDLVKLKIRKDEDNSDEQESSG

[7] = target: GRIP2_5, Q9C0E4
[8] = target: T3, HTRA3, P83110
T3 sequence (P83110 354-453, limits assumed, looked up): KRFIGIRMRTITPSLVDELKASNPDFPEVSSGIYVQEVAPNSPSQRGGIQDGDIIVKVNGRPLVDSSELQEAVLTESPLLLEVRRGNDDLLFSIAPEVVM

[9] = target: T4, HTRA4, P83105
T4 sequence (P83105 378-476, limits assumed, looked up): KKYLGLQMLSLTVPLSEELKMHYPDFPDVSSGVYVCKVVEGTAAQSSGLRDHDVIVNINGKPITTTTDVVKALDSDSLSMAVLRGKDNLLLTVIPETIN

[10] = target: IL16_4, Q14005
[11] = target: Inadl_10, Q8NI35
[12] = target: LDB3, O75112
[13] = target: LNX1_1, Q8TBB1
[14] = target: LNX1_2, Q8TBB1
[15] = target: LNX1_3, Q8TBB1
[16] = target: MAGI2_3, Q86UL8
[17] = target: MAGI3_2, Q5TCQ9
[18] = target: MAST2, Q6P0Q8
[19] = target: T5, MPP6, Q9NZW5
T5 sequence (Q9NZW5 125-219, limits assumed, looked up): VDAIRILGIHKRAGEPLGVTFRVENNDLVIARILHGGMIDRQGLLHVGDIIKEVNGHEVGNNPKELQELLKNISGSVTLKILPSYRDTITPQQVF

[20] = target: T6, NHERF3_1, Q5T2W1
T6 sequence (Q5T2W1 4-100, limits assumed, looked up): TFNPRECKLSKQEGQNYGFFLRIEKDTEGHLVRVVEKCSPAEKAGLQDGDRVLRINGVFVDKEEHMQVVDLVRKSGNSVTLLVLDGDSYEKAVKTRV

[21] = target: T7, NHERF3_3, Q5T2W1
T7 sequence (Q5T2W1 238-333, limits assumed, looked up): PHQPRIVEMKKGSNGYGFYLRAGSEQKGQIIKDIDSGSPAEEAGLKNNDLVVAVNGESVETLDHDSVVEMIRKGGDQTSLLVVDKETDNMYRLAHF

[22] = target: T8, NHERF3_4, Q5T2W1
T8 sequence (Q5T2W1 373-468, limits assumed, looked up): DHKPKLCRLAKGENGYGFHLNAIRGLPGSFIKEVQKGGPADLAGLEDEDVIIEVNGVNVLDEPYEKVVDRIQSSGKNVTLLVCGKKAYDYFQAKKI

[23] = target: NHERF4_4, Q86UT5
[24] = target: T9, RHPN1, Q8TCX5
T9 sequence (Q8TCX5 508-602, limits assumed, looked up): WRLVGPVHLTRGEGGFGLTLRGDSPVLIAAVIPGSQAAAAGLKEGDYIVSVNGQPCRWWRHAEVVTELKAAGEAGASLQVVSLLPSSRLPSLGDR

[25] = target: T10, SHANK1, Q9Y566
T10 sequence (Q9Y566 658-767, limits assumed, looked up): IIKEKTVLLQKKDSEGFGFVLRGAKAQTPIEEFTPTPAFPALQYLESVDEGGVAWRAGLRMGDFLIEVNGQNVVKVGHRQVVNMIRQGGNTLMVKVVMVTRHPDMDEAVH

[26] = target: T11, SNTG1, Q9NSN8
T11 sequence (Q9NSN8 52-150, limits assumed, looked up): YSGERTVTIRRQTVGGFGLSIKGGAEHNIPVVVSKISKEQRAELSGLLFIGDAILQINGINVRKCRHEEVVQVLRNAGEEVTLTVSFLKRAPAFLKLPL

[27] = target: SNX27, Q96L92
[28] = plain residues with an end cap or a label only (N-terminal biotin on a linker: ttds)
[29] = plain residues with an end cap or a label only (N-terminal biotin on a linker: ahx)

LNX1_1, Q8TBB1, sequence (Q8TBB1 261-371): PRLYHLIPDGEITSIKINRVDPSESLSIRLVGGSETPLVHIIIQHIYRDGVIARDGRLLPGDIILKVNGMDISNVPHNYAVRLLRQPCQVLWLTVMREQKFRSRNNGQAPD
LNX1_3, Q8TBB1, sequence (Q8TBB1 500-596): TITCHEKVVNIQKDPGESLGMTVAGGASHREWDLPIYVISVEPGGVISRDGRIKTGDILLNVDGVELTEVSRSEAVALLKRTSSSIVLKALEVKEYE
MAGI3_2, Q5TCQ9, sequence (Q5TCQ9 398-503): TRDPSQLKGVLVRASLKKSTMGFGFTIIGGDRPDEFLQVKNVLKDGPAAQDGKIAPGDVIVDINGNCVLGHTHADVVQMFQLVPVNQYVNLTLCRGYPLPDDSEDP
GRIP2_5, Q9C0E4, sequence (Q9C0E4 544-642): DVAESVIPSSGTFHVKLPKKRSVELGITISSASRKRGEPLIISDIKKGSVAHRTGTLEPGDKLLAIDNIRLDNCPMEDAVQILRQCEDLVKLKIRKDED
DLG4_3, P78352, sequence (P78352 306-403): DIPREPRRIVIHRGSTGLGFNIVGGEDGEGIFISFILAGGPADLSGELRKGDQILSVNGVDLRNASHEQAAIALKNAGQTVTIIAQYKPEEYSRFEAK
LDB3, O75112, sequence (O75112 1-94): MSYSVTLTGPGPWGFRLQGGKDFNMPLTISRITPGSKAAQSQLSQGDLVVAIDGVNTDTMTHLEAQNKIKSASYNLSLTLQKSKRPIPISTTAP
Inadl_10, Q8NI35, sequence (Q8NI35 1673-1763): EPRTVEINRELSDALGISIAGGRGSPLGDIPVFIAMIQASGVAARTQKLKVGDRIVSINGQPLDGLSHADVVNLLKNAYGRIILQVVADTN
LNX1_2, Q8TBB1, sequence (Q8TBB1 371-470): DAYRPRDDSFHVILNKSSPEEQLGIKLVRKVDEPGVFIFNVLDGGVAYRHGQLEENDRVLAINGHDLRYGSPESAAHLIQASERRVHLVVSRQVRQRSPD
GRID2IP_1, A4D2P6, sequence (A4D2P6 1-87): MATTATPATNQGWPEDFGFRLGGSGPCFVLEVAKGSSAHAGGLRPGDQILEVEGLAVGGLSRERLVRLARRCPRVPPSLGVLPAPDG
NHERF4_4, Q86UT5, sequence (Q86UT5 464-550): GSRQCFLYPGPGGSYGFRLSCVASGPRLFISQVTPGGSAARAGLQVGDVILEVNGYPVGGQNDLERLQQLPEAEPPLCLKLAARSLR
MAST2, Q6P0Q8, sequence (Q6P0Q8 1099-1202): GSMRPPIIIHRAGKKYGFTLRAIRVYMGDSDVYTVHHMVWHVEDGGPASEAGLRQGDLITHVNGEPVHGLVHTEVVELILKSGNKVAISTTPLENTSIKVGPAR
MAGI2_3, Q86UL8, sequence (Q86UL8 600-682): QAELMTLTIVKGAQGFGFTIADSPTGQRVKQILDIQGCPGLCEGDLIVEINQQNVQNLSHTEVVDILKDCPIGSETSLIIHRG
AHNAK1, Q09666, sequence (Q09666 4-100): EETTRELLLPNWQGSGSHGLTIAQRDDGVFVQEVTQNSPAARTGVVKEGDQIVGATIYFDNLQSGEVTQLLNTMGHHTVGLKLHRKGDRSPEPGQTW
GRID2IP_2, A4D2P6, sequence (A4D2P6 272-370): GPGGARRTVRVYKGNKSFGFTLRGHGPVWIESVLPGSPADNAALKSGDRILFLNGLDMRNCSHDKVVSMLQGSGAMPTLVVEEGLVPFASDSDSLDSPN
IL16_4, Q14005, sequence (Q14005 1229-1329): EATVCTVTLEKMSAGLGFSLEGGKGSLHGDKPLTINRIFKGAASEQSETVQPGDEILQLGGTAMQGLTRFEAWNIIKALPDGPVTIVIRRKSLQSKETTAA

Question: With SRSRRRETAL [HPV33-E6, P06427] as the binder, how does the pKd [1, 28] read?
Answer: Its pKd is 3.62.

Question: And the pKd [2, 28]?
Answer: Its pKd is “below the threshold”.

Question: What about the pKd [3, 28] of the same binder?
Answer: The pKd was 5.32.

Question: What about the pKd [4, 28] of the same binder?
Answer: Its pKd is “below the threshold”.

Question: And the pKd [5, 28]?
Answer: The pKd was 4.18.

Question: And the pKd [6, 28]?
Answer: Its pKd is “below the threshold”.

Question: And the pKd [7, 28]?
Answer: Its pKd is “below the threshold”.

Question: And the pKd [8, 28]?
Answer: Its pKd is “below the threshold”.

Question: What about the pKd [9, 28] of the same binder?
Answer: Its pKd is “below the threshold”.

Question: What about the pKd [10, 28] of the same binder?
Answer: Its pKd is “below the threshold”.

Question: And the pKd [11, 28]?
Answer: The pKd was “below the threshold”.

Question: And the pKd [12, 28]?
Answer: The pKd was “below the threshold”.

Question: And the pKd [13, 28]?
Answer: The pKd was “below the threshold”.

Question: And the pKd [14, 28]?
Answer: The pKd was “below the threshold”.

Question: What about the pKd [15, 28] of the same binder?
Answer: Its pKd is “below the threshold”.

Question: And the pKd [16, 28]?
Answer: Its pKd is “below the threshold”.

Question: What about the pKd [17, 28] of the same binder?
Answer: Its pKd is 5.39.

Question: And the pKd [18, 28]?
Answer: The pKd was 5.37.

Question: What about the pKd [19, 28] of the same binder?
Answer: Its pKd is “below the threshold”.

Question: What about the pKd [20, 28] of the same binder?
Answer: The pKd was 5.49.

Question: And the pKd [21, 28]?
Answer: The pKd was “below the threshold”.

Question: And the pKd [22, 28]?
Answer: The pKd was 3.97.

Question: And the pKd [23, 28]?
Answer: Its pKd is “below the threshold”.

Question: And the pKd [24, 28]?
Answer: Its pKd is 3.81.

Question: What about the pKd [25, 28] of the same binder?
Answer: Its pKd is 3.51.

Question: And the pKd [26, 28]?
Answer: The pKd was 3.62.

Question: What about the pKd [27, 28] of the same binder?
Answer: The pKd was 4.91.

Question: How did the pKd [1, 29] turn out when YNSFLSVTTV [PDZRN3, Q9UPQ7] was run?
Answer: Its pKd is 3.53.

Question: And the pKd [2, 29]?
Answer: The pKd was “below the threshold”.

Question: And the pKd [3, 29]?
Answer: Its pKd is “below the threshold”.

Question: What about the pKd [4, 29] of the same binder?
Answer: The pKd was “below the threshold”.

Question: What about the pKd [5, 29] of the same binder?
Answer: Its pKd is 3.57.

Question: What about the pKd [6, 29] of the same binder?
Answer: Its pKd is “below the threshold”.

Question: And the pKd [7, 29]?
Answer: Its pKd is “below the threshold”.

Question: What about the pKd [8, 29] of the same binder?
Answer: The pKd was “below the threshold”.

Question: What about the pKd [9, 29] of the same binder?
Answer: Its pKd is 4.2.

Question: What about the pKd [10, 29] of the same binder?
Answer: The pKd was “below the threshold”.

Question: And the pKd [11, 29]?
Answer: The pKd was 3.7.

Question: What about the pKd [12, 29] of the same binder?
Answer: Its pKd is “below the threshold”.

Question: And the pKd [13, 29]?
Answer: The pKd was 3.8.

Question: And the pKd [14, 29]?
Answer: The pKd was 4.23.

Question: And the pKd [15, 29]?
Answer: Its pKd is “below the threshold”.

Question: And the pKd [16, 29]?
Answer: The pKd was 3.56.

Question: What about the pKd [17, 29] of the same binder?
Answer: Its pKd is 4.27.

Question: What about the pKd [18, 29] of the same binder?
Answer: Its pKd is 4.46.

Question: And the pKd [19, 29]?
Answer: The pKd was “below the threshold”.

Question: What about the pKd [20, 29] of the same binder?
Answer: Its pKd is “below the threshold”.

Question: What about the pKd [21, 29] of the same binder?
Answer: Its pKd is “below the threshold”.

Question: What about the pKd [22, 29] of the same binder?
Answer: The pKd was 3.63.

Question: And the pKd [23, 29]?
Answer: The pKd was 3.49.

Question: And the pKd [24, 29]?
Answer: The pKd was 4.4.

Question: What about the pKd [25, 29] of the same binder?
Answer: The pKd was 3.66.

Question: What about the pKd [26, 29] of the same binder?
Answer: Its pKd is 3.79.

Question: And the pKd [27, 29]?
Answer: Its pKd is 4.49.

Question: Which results are given for FVETQHQTQV [FAT3, Q8TDW7]?
Answer: pKd [1, 28]: 3.52; pKd [2, 28]: below the threshold; pKd [3, 28]: below the threshold; pKd [4, 28]: below the threshold; pKd [5, 28]: 3.59; pKd [6, 28]: below the threshold; pKd [7, 28]: below the threshold; pKd [8, 28]: below the threshold; pKd [9, 28]: below the threshold; pKd [10, 28]: below the threshold; pKd [11, 28]: 3.5; pKd [12, 28]: below the threshold; pKd [13, 28]: below the threshold; pKd [14, 28]: below the threshold; pKd [15, 28]: below the threshold; pKd [16, 28]: 3.63; pKd [17, 28]: 4.57; pKd [18, 28]: 5.39; pKd [19, 28]: below the threshold; pKd [20, 28]: 4.72; pKd [21, 28]: below the threshold; pKd [22, 28]: below the threshold; pKd [23, 28]: below the threshold; pKd [24, 28]: 4.32; pKd [25, 28]: 3.63; pKd [26, 28]: 4.02; pKd [27, 28]: 4.53

Question: For PKMKLNETSF [SHKBP1, Q8TBC3], which pKd [1, 29] is on record?
Answer: The pKd was “below the threshold”.

Question: And the pKd [2, 29]?
Answer: The pKd was “below the threshold”.

Question: And the pKd [3, 29]?
Answer: Its pKd is “below the threshold”.

Question: And the pKd [4, 29]?
Answer: Its pKd is “below the threshold”.

Question: What about the pKd [5, 29] of the same binder?
Answer: Its pKd is “below the threshold”.

Question: What about the pKd [6, 29] of the same binder?
Answer: The pKd was “below the threshold”.

Question: What about the pKd [7, 29] of the same binder?
Answer: The pKd was “below the threshold”.

Question: What about the pKd [8, 29] of the same binder?
Answer: The pKd was “below the threshold”.

Question: And the pKd [9, 29]?
Answer: The pKd was “below the threshold”.

Question: What about the pKd [10, 29] of the same binder?
Answer: Its pKd is “below the threshold”.

Question: What about the pKd [11, 29] of the same binder?
Answer: Its pKd is “below the threshold”.

Question: And the pKd [12, 29]?
Answer: Its pKd is “below the threshold”.

Question: What about the pKd [13, 29] of the same binder?
Answer: The pKd was “below the threshold”.

Question: What about the pKd [14, 29] of the same binder?
Answer: Its pKd is “below the threshold”.

Question: What about the pKd [15, 29] of the same binder?
Answer: The pKd was “below the threshold”.

Question: And the pKd [16, 29]?
Answer: The pKd was “below the threshold”.

Question: And the pKd [17, 29]?
Answer: Its pKd is “below the threshold”.

Question: And the pKd [18, 29]?
Answer: Its pKd is 4.94.

Question: What about the pKd [19, 29] of the same binder?
Answer: The pKd was “below the threshold”.

Question: What about the pKd [20, 29] of the same binder?
Answer: The pKd was 4.55.

Question: And the pKd [21, 29]?
Answer: Its pKd is “below the threshold”.

Question: What about the pKd [22, 29] of the same binder?
Answer: Its pKd is “below the threshold”.

Question: And the pKd [23, 29]?
Answer: The pKd was “below the threshold”.

Question: What about the pKd [24, 29] of the same binder?
Answer: Its pKd is 3.72.

Question: What about the pKd [25, 29] of the same binder?
Answer: The pKd was 4.21.

Question: And the pKd [26, 29]?
Answer: Its pKd is 3.68.

Question: And the pKd [27, 29]?
Answer: The pKd was 5.54.
